Results taken from the RNAGym collection of RNA variant scans (doi:10.1093/molbev/msab373).

B1: Azoarcus group I ribozyme (parent)
chain: GUGCCUUGCGCCGGGAAACCACGCAAGGGAUGGUGUCAAAUUCGGCGAAACCUAAGCGCCCGCCCGGGCGUAUGGCAACGCCGAGCCAAGCUUCGGCGCCUGCGCCGAUGAAGGUGUAGAGACUAGACGGCACCCACCUAAGGCAAACGCUAUGGUGAAGGCAUAGUCCAGGGAGUGGCGAAAGUCACACAAACCGG

Variants of: B1
Assay: reverse-splicing fitness (ratio to wild type); higher = more active; in vitro selection; Mg2+ level not given
Method in brief: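 An in vitro group I ribozyme library with randomized positions was T7-transcribed and gel-purified. In triplicate, 10 pmol RNA in EPPS pH 7.5 was reacted with 50 pmoles of a 30-nt RNA substrate for 1 h at 37 °C across several added MgCl2 levels (1–48 mM), then stopped with EDTA. Products were reverse transcribed from a substrate-complementary primer, PCR-amplified and sequenced (HiSeq 4000). Fitness is a variant's read proportion after selection over that before, normalised to wild type.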

Variant | reverse-splicing fitness
C82U A111C C150A C169A | 0.00994
C82U A111C C150A C169U | 0.0106
C82U A111G A120C A145G C150A C169G U176C | 0.0213
C82U A111G A120C A145G C150A C169G U176G | 0.00547
C82U A111G A120C A145G C150A C169G U176A | 0.0237
C82U A111C C150G C169U | 0.00902
C82U A111C C150G C169G | 0.00661
C82U A111C C150G C169A | 0.00807
C82U A111G A120C A145C C150G C169A U176G | 0.00425
C82U A111G A120C A145C C150G C169A U176C | 0.00573
C82U A111G A120C A145C C150G C169A U176A | 0.00643
C82U A111C A145U C169U U176G | 0.00634
C82U A111C A145U C169U U176A | 0.0163
C82U A111C A145U C169U U176C | 0.0143
C82U A111G A120C A145U C150A C169A | 0.00739
C82U A111G A120C A145U C150A C169U | 0.00709
C82U A111G A120C A145U C150A C169G | 0.00798
C82U A111G A120C C150A U176G | 0.00554
C82U A111G A120C C150A U176C | 0.0187
C82U A111G A120C C150A U176A | 0.0127
C82U A111G A120C A145G C150U C169G U176C | 0.0188

Variant | reverse-splicing fitness
C82U A111G A120C A145G C150U C169G U176A | 0.0191
C82U A111G A120C A145G C150U C169G U176G | 0.00507
C82U A111G A120C A145G C169A U176C | 0.0205
C82U A111G A120C A145G C169A U176A | 0.0153
C82U A111G A120C A145G C169A U176G | 0.00336
C82U A111G A120C A145C C150G C169U U176C | 0.0112
C82U A111G A120C A145C C150G C169U U176A | 0.00787
C82U A111G A120C A145C C150G C169U U176G | 0.00424
C82U A111G A120C A145C C169G U176G | 0.00381
C82U A111G A120C A145C C169G U176A | 0.0164
C82U A111G A120C A145C C169G U176C | 0.00852
C82U A111G A120C A145G U176A | 0.0202
C82U A111G A120C A145G U176G | 0.00519
C82U A111G A120C A145G U176C | 0.0318
C82U A111C C150U U176G | 0.0125
C82U A111C C150U U176C | 0.0667
C82U A111C C150U U176A | 0.0385
C82U A111C A145U C150G C169U | 0.00877
C82U A111G A120C A145U C150A C169G U176G | 0.00457
C82U A111G A120C A145U C150A C169G U176C | 0.0112
C82U A111G A120C A145U C150A C169G U176A | 0.0153

Variant | reverse-splicing fitness
C82U A111G A120C A145C C150A C169A | 0.00689
C82U A111G A120C A145C C150A C169U | 0.00924
C82U A111G A120C A145C C150A C169G | 0.00759
C82U A111G A120C A145C C150U C169G U176G | 0.00444
C82U A111G A120C A145C C150U C169G U176C | 0.00801
C82U A111G A120C A145C C150U C169G U176A | 0.0173
C82U A111G A120C C150G | 0.00825
C82U A111G A120C C150A | 0.0113
C82U A111G A120C C150U | 0.0325
C82U A111C C169U U176A | 0.0179
C82U A111C C169U U176G | 0.00681
C82U A111C C169U U176C | 0.0146
C82U A111G A120C A145U C150U C169A U176A | 0.0106
C82U A111G A120C A145U C150U C169A U176C | 0.00827
C82U A111G A120C A145U C150U C169A U176G | 0.00488
C82U A111G A120C | 0.0555
C82U A111G A120C A145C C150G C169G U176C | 0.004
C82U A111G A120C A145C C150G C169G U176G | 0.00397
C82U A111G A120C A145C C150G C169G U176A | 0.00761
C82U A111G A120C A145G C150G C169G U176G | 0.00471
C82U A111G A120C A145G C150G C169G U176A | 0.00909

Variant | reverse-splicing fitness
C82U A111G A120C A145G C150G C169G U176C | 0.00625
C82U A111G A120C C150G C169U U176A | 0.00617
C82U A111G A120C C150G C169U U176G | 0.00489
C82U A111G A120C C150G C169U U176C | 0.0138
C82U A111C A145U C150U U176A | 0.0489
C82U A111C A145U C150U U176G | 0.0152
C82U A111C A145U C150U U176C | 0.0704
C82U A111C C150U C169G U176G | 0.00752
C82U A111C C150U C169G U176A | 0.0119
C82U A111C C150U C169G U176C | 0.0161
C82U A111G A120C A145G C150U C169U U176C | 0.0127
C82U A111G A120C A145G C150U C169U U176G | 0.00448
C82U A111G A120C A145G C150U C169U U176A | 0.0147
C82U A111G A120C A145C C169A U176C | 0.00404
C82U A111G A120C A145C C169A U176G | 0.003
C82U A111G A120C A145C C169A U176A | 0.00738
C82U A111C A145U C169A U176C | 0.0139
C82U A111C A145U C169A U176A | 0.0129
C82U A111C A145U C169A U176G | 0.00703
C82U A111C C150G U176C | 0.0147
